From patent US20240124556A1, “KERATIN BD-3, PREPARATION METHOD THEREFOR AND PHARMACEUTICAL COMPOSITION AND USE THEREOF” (INSTITUTE OF MATERIA MEDICA, CHINESE ACADEMY OF MEDICAL …, priority 2019, published 2024)

Assays:
[1] = tested on: lipopolysaccharide (LPS) induced fever model in SD rats; experiment: Lipopolysaccharide (LPS) induced fever in SD rats; format: in vivo; settings: for Body temperature 2 hours after modeling / Body temperature 4 hours after modeling / Body temperature 6 hours after modeling / Body temperature 8 hours after modeling: LPS 20 μg/kg i.p.; for Body temperature 2 hours after modeling: model group 37.6 ± 0.1; for Body temperature 4 hours after modeling: model group 37.8 ± 0.1; for Body temperature 6 hours after modeling / Body temperature 8 hours after modeling: model group 37.8 ± 0.2
Description: • Animals: 230-260 grams of male SD rats; • Drugs: lipopolysaccharide (LPS, SIGMA L-2880), aspirin (SIGMA A2093), protein BD-3; Instruments: electronic balance (SARTORIUS BP121S type), electronic clinical thermometer (CITIZEN CT-513W type). • Experiment grouping: • Normal control group; • Model group: lipopolysaccharide fever model; • Positive control group: Aspirin 300 mg/kg group; • Protein BD-3, 10 mg/kg group, 50 mg/kg group. • Method: the method of intraperitoneal injection of Lipopolysaccharide to replicate rat fever model.
Preparation of experimental animals: After the experimental animals adapt to the experimental environment (temperature 22° C.±2° C., relative humidity 50%±2%) for 1 day. Pre-adaptation to measure rectal temperature at 8:00 and 15:00, rats were fasted and water was taken freely 12 h before experiment, and let the animal to empty its feces before measuring the rectal temperature. Apply petroleum jelly to the electronic thermometer probe before each temperature measurement. Insert the rat rectum 2 cm (can be marked at 2 cm to ensure that the depth of each insertion is consistent), and record the body temperature after the reading is stable.
Intraperitoneal injection of lipopolysaccharide to replicate rat fever model: The body temperature of the rats was measured before modeling. Qualified rats with a body temperature of 36.2-37.3° C. were selected and randomly divided into groups with 8 rats in each group. After oral administration of aspirin and different doses of protein BD-3, lipopolysaccharide (20 μg/kg, 2 ml/kg) was injected intraperitoneally immediately, and the normal control group was injected intraperitoneally with an equal volume of normal saline. The body temperatures of the rats were monitored after 2 hours for a total of 8 hours.
According to the body temperature measured at each time point on the day of the experiment, calculate the mean, standard deviation and standard error of the body temperature of each group of rats. The data of each group was compared with TTEST, and P<0.05 was considered as a significant difference.

[2] = tested on: phenol red excretion in mice; experiment: Expectorant test, phenol red excretion method in mice; format: in vivo, ICR mice; settings: for Phenol red excretion: X ± SEM, solvent control 0.506 ± 0.040
Description: • Animals: male ICR mice; • Drugs and reagents: Mucosolvan (ambroxol hydrochloride tablets), phenol red, sodium bicarbonate, protein BD-3; • Instruments: centrifuge (Sigma-3K15 type), balance (XS105DU type), Microplate tester (BIO-TEK type). • Experiment Grouping: • Solvent control group; • Mucosolvan 30 mg/kg group; • Protein BD-3, 20 mg/kg group, 50 mg/kg group.
The animals were fasted and water was taken freely 16 hours before the experiment. Orally administered Mucosolvan and different doses of protein BD-3 (administration volume 10 ml/kg) in groups, and the solvent control group was given the same volume of distilled water. One hour later, 2.5% phenol red solution was injected intraperitoneally. Mice were sacrificed by neck dislocation after 30 minutes. Take a trachea from below the thyroid cartilage to the branch of the trachea, and put the trachea into 3 ml 5% NaHCO3 solution and let it stand for 3 hours. Take 1 ml of the supernatant and centrifuge at 3000 rpm for 5 minutes. Measure and record the absorbance at 546 nm. According to the standard curve of phenol red, the excretion of phenol red was calculated.
Record the time point of oral administration, the time point of intraperitoneal injection of 2.5% phenol red solution, and the time point of taking the trachea respectively; The absorbance of each group of samples was measured by the microplate reader at 546 nm, Calculate the excretion of phenol red according to the standard curve of phenol red. Calculate the mean and standard error of the data in each group, and use TTEST to compare the solvent control group with other groups, and P<0.05 is considered as a significant difference.

[3] = tested on: cough induced by ammonia water in mice; experiment: Antitussive test, cough induced by ammonia water in mice; format: in vivo, ICR mice; settings: for Incubation period (cough) / Number of coughs: X ± SEM; for Incubation period (cough): solvent control 26.9 ± 2.3; for Number of coughs: within 2 minutes, solvent control 67.1 ± 5.7
Description: • Animals: male ICR mice; • Drugs and reagents: dextromethorphan hydrobromide, ammonia water, 0.2% CMC-Na, protein BD-3; • Apparatus: Compressed nebulizer (403T type), balance (XS105DU type). • Experiment grouping: • Solvent control group; • Dextromethorphan 15 mg/kg group; • Protein BD-3, 20 mg/kg group, 50 mg/kg group.
Dextromethorphan and different doses of protein BD-3 (administration volume 10 ml/kg) were given orally in groups, and the solvent control group was given the same volume of distilled water. One hour later, mice were put into a sealed box and atomized 10% ammonia water for 10 seconds, and then observed and recorded the incubation period of cough in mice and the number of coughs in 2 minutes.
Record the time point of oral administration, the time point of atomization experiment, the incubation period of mice cough and the number of coughs within 2 minutes, respectively. The incubation period of cough refers to the number of seconds from the start of the atomization of ammonia to the occurrence of cough. The performance of coughing in mice is based on contraction of their abdominal muscles (breast contraction) and opening their mouths at the same time. Calculate the mean and standard error of each group of data, and use TTEST to compare the model group with other groups, and P<0.05 is considered as a significant difference.

[4] = tested on: acetic acid writhing in ICR mice; experiment: Acetic acid writhing in ICR mice; format: in vivo; settings: for Writhing incubation period: 0.6% acetic acid i.p., model group 204.2 ± 19.6; for Frequency of writhing: within 15 minutes, model group 33.3 ± 2.5
Description: • Animals: male ICR mice; • Drugs and reagents: aspirin, physiological saline, glacial acetic acid, protein BD-3. • Experiment grouping: • Model group; • Aspirin 300 mg/kg group; • Protein BD-3, 50 mg/kg group, 200 mg/kg group.
One day after the experimental animals adapt to the environment, Aspirin 300 mg/kg, protein BD-3 50 mg/kg, 200 mg/kg were given orally one hour in advance, and the administration volume was 10 ml/kg; Then, 0.6% acetic acid solution was injected intraperitoneally, and the incubation period (seconds) and frequency of writhing in the animal was observed within 15 minutes.
Calculate the mean and standard error of the data in each group. Compared with the model group by TTEST, P<0.05 was considered as statistically different.

[5] = summary statement, no dose given

B1: BD-3: recombinant keratin, amino acid sequence SEQ ID NO:1, expressed in E. coli, band around 43 kD; tested material prepared in Example 4 (protein, listed as Bos taurus)
chain: MSYSCCLPNLSFRSSCSSRPCVPSSCCGTTLPGACNIPANVGSCNWFCEGSFNGSEKETMQFLNDRLASYLEKVRQLERDNAELESRILERSQQKILANKAENARLVVQIDNAKLAADDFRTKYQTELGLRQLVESDINGLRRILDELTLCKSDLEAQVESLKEELICLKQNHEQEVNTLRSQLGDRLNVEVDAAPTVDLNRVLNETRAQYEALVETNRRDVEEWYIRQTEELNKQVVSSSEQLQSYQAEIIELRRTVNALEVELQAQHNLRDSLENTLTETEARYSCQLAQVQGLIGNVESQLAEIRSDLERQNQEYQVLLDVRARLECEINTYRGLLDSEDCKLPCNPCATTNASSVGSCVTNPCTPCGPRSRFGPCNTFGC
- Body temperature 2 hours after modeling ([1]; BD-3 10 mg/kg oral): 37.6 ± 0.1 °C
- Body temperature 4 hours after modeling ([1]; BD-3 10 mg/kg oral): 37.9 ± 0.2 °C
- Body temperature 6 hours after modeling ([1]; BD-3 10 mg/kg oral): 37.9 ± 0.2 °C
- Body temperature 8 hours after modeling ([1]; BD-3 10 mg/kg oral): 37.6 ± 0.2 °C
- Body temperature 2 hours after modeling ([1]; BD-3 50 mg/kg oral): 37.2 ± 0.2 °C
- Body temperature 4 hours after modeling ([1]; BD-3 50 mg/kg oral): 37.3 ± 0.2 °C
- Body temperature 6 hours after modeling ([1]; BD-3 50 mg/kg oral): 37.7 ± 0.3 °C
- Body temperature 8 hours after modeling ([1]; BD-3 50 mg/kg oral): 37.6 ± 0.2 °C
- Effect on body temperature of model rats (in words) ([1]; BD-3 50 mg/kg, at 2 hours and 4 hours after modeling, P<0.05 vs model group): can reduce the body temperature of model rats
- Summary: antipyretic effect in LPS fever model (in words) [1, 5]: has a significant effect of reducing body temperature rise at 2 hours and 4 hours after modeling
- Phenol red excretion ([2]; BD-3 20 mg/kg oral): 0.750 ± 0.085 µg/mL
- Excretion of phenol red vs solvent control (in words) ([2]; BD-3 20 mg/kg, P<0.05): significantly increased the excretion of phenol red
- Phenol red excretion ([2]; BD-3 50 mg/kg oral): 0.706 ± 0.114 µg/mL
- Summary: expectorant effect (in words) [2, 5]: has obvious expectorant effect
- Incubation period (cough) ([3]; BD-3 20 mg/kg oral): 31.6 ± 3.3 s
- Number of coughs ([3]; BD-3 20 mg/kg oral): 46.7 ± 4.1
- Number of coughs vs solvent control (in words) ([3]; BD-3 20 mg/kg, P<0.05): significant improvement in the number of coughs
- Incubation period (cough) ([3]; BD-3 50 mg/kg oral): 34.2 ± 2.1 s
- Number of coughs ([3]; BD-3 50 mg/kg oral): 53.6 ± 3.7
- Cough incubation period vs solvent control (in words) ([3]; BD-3 50 mg/kg, P<0.05): significant improvement in the incubation period
- Summary: antitussive effect (in words) [3, 5]: can significantly extend the incubation period, significantly reduce the number of coughs
- Writhing incubation period ([4]; BD-3 50 mg/kg oral): 221.5 ± 28.4 s
- Frequency of writhing ([4]; BD-3 50 mg/kg oral): 24.7 ± 3.0 times
- Times of writhing vs model group (in words) ([4]; BD-3 50 mg/kg, P<0.05): can significantly reduce the times of writhing in mice
- Writhing incubation period ([4]; BD-3 200 mg/kg oral): 189.8 ± 10.4 s
- Frequency of writhing ([4]; BD-3 200 mg/kg oral): 29.5 ± 4.7 times
- Summary: analgesic effect, writhing (in words) [4, 5]: can significantly reduce the number of writhing times in mice
